System: endogenous MMR activity
Assay: pCAR-OF β-galactosidase reporter assay for MMR deficiency (in situ X-gal staining)
Assay type: cell-based, human
Conditions: PMS134 expressed from pEF vector in HEK293 cells
From the text: A method used to detect MMR deficiency in eukaryotic cells is to employ a reporter gene that has a polynucleotide repeat inserted within the coding region that disrupts its reading frame due to a frame shift. In the case where MMR is defective, the reporter gene will acquire random mutations (i.e. insertions and/or deletions) within the polynucleotide repeat yielding clones that contain a functional reporter gene. An example of the ability to alter desired genes via defective MMR comes from experiments using HEK293 cells (described above), where a mammalian expression construct containing a defective β-galactosidase gene (referred to as pCAR-OF) was transfected into 293PMS134 or 293vec cells as described above. The pCAR-OF vector consists of a β-galactosidase gene containing a 29-basepair poly-CA tract inserted at the 5′ end of its coding region, which causes the wild-type reading frame to shift out-of-frame. […] Another reporter vector called pCAR-IF contains a β-galactosidase in which a 27-bp poly-CA repeat was cloned into the same site as the pCAR-OF gene, but it is biologically active because the removal of a single repeat restores the open reading frame and produces a functional chimeric β-galactosidase polypeptide (not shown). […] Cells were scored positive if the colonies turned blue in the presence of X-gal substrate and scored negative if colonies remained white. […]

B1: PMS134: previously published dominant negative human PMS2 mismatch repair mutant (SEQ ID NO:11/12) (protein, listed as Homo sapiens)
chain: RGGSGVASMERAESSSTEPAKAIKPIDRKSVHQICSGQVVLSLSTAVKELVENSLDAGATNIDLKLKDYGVDLIEVSDNGCGVEEENFEGLTLKHHTSKIQEFADLTQVETFGFRGEALSSLCALSDVTISTCHASAKVGT
  dominant negative effect on MMR: robust dominant negative effect

Reference: patent US7638334B2, “Method for generating engineered cells by homologously recombining segments having increased degeneracy” (Morphotek, Inc., priority 2002, dated 2009)
